Test results: PMC4004597 (Molecular Biology of the Cell, 2014)

T1: R. norvegicus Nup62 (aa 322–525), entire predicted α-helical part (R. norvegicus, UniProt P17955 322-525)
T1 sequence: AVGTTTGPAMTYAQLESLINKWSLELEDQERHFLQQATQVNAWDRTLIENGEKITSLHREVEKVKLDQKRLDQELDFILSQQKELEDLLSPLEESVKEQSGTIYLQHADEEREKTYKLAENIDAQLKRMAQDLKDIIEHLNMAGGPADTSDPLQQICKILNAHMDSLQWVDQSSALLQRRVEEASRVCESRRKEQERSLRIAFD

T2: R. norvegicus Nup54 of the published Nup58-Nup54 crystal construct (aa 456–494) (R. norvegicus, UniProt P70582 456-494)
T2 chain: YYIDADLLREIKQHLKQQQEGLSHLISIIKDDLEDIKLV

B1: R. norvegicus Nup58 (aa 239–415), entire predicted α-helical part (domain or fragment)
chain: not shown
B2: long rnNup58-Nup54-Nup62 complex (complex)
chain 1: not shown
chain 2: MTKQHQTRLDIISEDISELQKNQTTTMAKIAQYKRKLMDLSHRTLQVLIKQEIQRKSGYAIQAEEEQLRVQLDTIQGELNAPTQFKGRLNELMSQIRMQNHFGAVKSEEKYYIDADLLREIKQHLKQQQEGLSHLISIIKDDLEDIKLV
chain 3: T1 sequence
B3: R. norvegicus Nup54 (aa 346–494), entire predicted α-helical part (domain or fragment)
chain: B2 chain 2
B4: short rnNup58-Nup54-Nup62 complex (complex)
chain 1: APADYFRVLVQQFEVQLQQYRQQIEELENHLATQANNSHITPQDLSMAMQKIYQTFVALAAQLQSIHENVKVLKEQYLSYRKMFLGDAG
chain 2: B2 chain 2
chain 3: T1 sequence
B5: R. norvegicus Nup58 of the published Nup58-Nup54 crystal construct (aa 327–412) (domain or fragment)
chain: APADYFRVLVQQFEVQLQQYRQQIEELENHLATQANNSHITPQDLSMAMQKIYQTFVALAAQLQSIHENVKVLKEQYLSYRKMFLG
B6: R. norvegicus Nup58 (aa 327–415), N-terminally truncated (domain or fragment)
chain: B4 chain 1

Legend:
[1] = target: B3; test: SEC
AUC = target: the molecule itself; test: AUC
[2] = target: T1, R. norvegicus Nup62 (aa 322–525), …; test: SEC
[3] = target: T2, R. norvegicus Nup54 of the published …; test: AUC

Row | Binder | stoichiometry N [1] | Kd (AUC) | further results
1 | B1 | 1 | – | –
2 | B2 | – | 52 µM | –
3 | B3 | – | – | stoichiometry N [2]: 1
4 | B4 | – | 49.3 µM | –
5 | B5 | – | – | stoichiometry N [3]: 2 Nup58:Nup54
6 | B6 | 1 | – | –
